# Residue numbers refer to the chain shown, from its start.
# B1: VH1-D2/LOE7 (format printed as IgG1/IgG4 in Table 6, scFv/IgG1/IgG4 in Table 7) (antibody, V domains shown)
# VH: QVQLVESGGGLVQPGRSLRLSCAASGFTFDDYAMHWVRQAPGKGLDWVSAITWNSGHIDYADSVEGRFAVSRDNAKNALYLQMNSLRPEDTAVYYCAKVSYLSTASSLDYWGQGTLVTVSS
# VL: not shown
# B2: VH1-D2/EP B12 scFv (scFv, V domains shown)
# VH: B1 VH
# VL: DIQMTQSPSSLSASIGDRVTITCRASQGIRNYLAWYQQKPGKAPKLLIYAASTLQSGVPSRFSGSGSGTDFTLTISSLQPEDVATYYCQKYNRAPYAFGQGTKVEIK
# notes: scFv
# B3: VH1-D2/2SD4 VL scFv (scFv, V domains shown)
# VH: B1 VH
# VL: DIQMTQSPSSLSASIGDRVTITCRASQGIRNYLAWYQQKPGKAPKLLIYAASTLQSGVPSRFSGSGSGTDFTLTISSLQPEDVATYYCQKYNSAPYAFGQGTKVEIK
# notes: scFv
# B4: VH1-D2/LOE7 scFv (scFv, V domains shown)
# VH: B1 VH
# VL: not shown
# notes: scFv; not shown: the scFv linker and the order of the domains
# B5: 2SD4 VH/VL100D2 scFv (scFv, V domains shown)
# VH: B1 VH with A97T, V99A, A105S, Y110N
# VL: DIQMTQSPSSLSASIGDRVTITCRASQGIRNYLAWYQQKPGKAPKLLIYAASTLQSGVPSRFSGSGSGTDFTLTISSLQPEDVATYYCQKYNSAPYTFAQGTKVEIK
# notes: scFv
# B6: 2SD4 VH/VL100A9 scFv (scFv, V domains shown)
# VH: B1 VH with A97T, V99A, A105S, Y110N
# VL: B3 VL with N92S, A97T
# notes: scFv
# B7: VH1G1/2SD4 VL scFv (scFv, V domains shown)
# VH: B1 VH with V93A, V99A, A105S
# VL: B3 VL
# notes: scFv
# B8: 2SD4 VH/VLLOG9 scFv (scFv, V domains shown)
# VH: B1 VH with A97T, V99A, A105S, Y110N
# VL: B3 VL with N92T, A97T
# notes: scFv
# B9: 2SD4 VH/VLLOH1 scFv (scFv, V domains shown)
# VH: B1 VH with A97T, V99A, A105S, Y110N
# VL: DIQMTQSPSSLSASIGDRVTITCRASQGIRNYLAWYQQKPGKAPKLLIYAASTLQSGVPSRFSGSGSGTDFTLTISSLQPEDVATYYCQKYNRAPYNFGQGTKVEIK
# notes: scFv
# B10: VH1E4/2SD4 VL scFv (scFv, V domains shown)
# VH: B1 VH with V99A, A105S, D109H
# VL: B3 VL
# notes: scFv
# B11: 2SD4 VH/EP B12 scFv (scFv, V domains shown)
# VH: B1 VH with A97T, V99A, A105S, Y110N
# VL: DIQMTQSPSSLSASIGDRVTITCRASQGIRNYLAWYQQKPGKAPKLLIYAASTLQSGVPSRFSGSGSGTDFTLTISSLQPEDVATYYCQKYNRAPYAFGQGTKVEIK
# notes: scFv
# B12: VH1F6/2SD4 VL scFv (scFv, V domains shown)
# VH: B1 VH with V99A, Y101F, A105S, D109E
# VL: B3 VL
# notes: scFv
# B13: 2SD4 VH/VL1B7 scFv (scFv, V domains shown)
# VH: B1 VH with A97T, V99A, A105S, Y110N
# VL: B3 VL with K90Q, Y96D, A97T, F98W
# notes: scFv
# B14: 2SD4 VH/VL0.1H8 scFv (scFv, V domains shown)
# VH: B1 VH with A97T, V99A, A105S, Y110N
# VL: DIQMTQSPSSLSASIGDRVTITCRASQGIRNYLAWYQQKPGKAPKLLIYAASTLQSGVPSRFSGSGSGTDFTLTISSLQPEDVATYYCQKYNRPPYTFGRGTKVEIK
# notes: scFv
# B15: 2SD4 VH/VL1C7 scFv (scFv, V domains shown)
# VH: B1 VH with A97T, V99A, A105S, Y110N
# VL: B3 VL with A97N
# notes: scFv
# B16: 2SD4 VH/VL1C1 scFv (scFv, V domains shown)
# VH: B1 VH with A97T, V99A, A105S, Y110N
# VL: B3 VL with A94D, A97T
# notes: scFv
# B17: 2SD4 VH/VL0.1F4 scFv (scFv, V domains shown)
# VH: B1 VH with A97T, V99A, A105S, Y110N
# VL: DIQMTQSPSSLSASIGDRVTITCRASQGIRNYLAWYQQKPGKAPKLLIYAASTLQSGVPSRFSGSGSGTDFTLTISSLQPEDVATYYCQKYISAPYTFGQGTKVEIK
# notes: scFv
# B18: 2SD4 VH/VLLOG7 scFv (scFv, V domains shown)
# VH: B1 VH with A97T, V99A, A105S, Y110N
# VL: B3 VL with A97N
# notes: scFv
# B19: 2SD4 VH/VL10E4 scFv (scFv, V domains shown)
# VH: B1 VH with A97T, V99A, A105S, Y110N
# VL: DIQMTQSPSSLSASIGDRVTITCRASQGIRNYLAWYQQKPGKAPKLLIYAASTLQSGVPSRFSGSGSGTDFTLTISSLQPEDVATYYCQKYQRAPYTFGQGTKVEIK
# notes: scFv
# B20: 2SD4 VH/VLL0F10 scFv (scFv, V domains shown)
# VH: B1 VH with A97T, V99A, A105S, Y110N
# VL: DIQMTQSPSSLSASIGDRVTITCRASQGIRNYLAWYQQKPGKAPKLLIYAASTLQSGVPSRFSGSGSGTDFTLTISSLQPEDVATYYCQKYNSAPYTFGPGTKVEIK
# notes: scFv
# B21: VH1B11/2SD4 VL scFv (scFv, V domains shown)
# VH: B1 VH with A97T, V99A, A105S, Y110K
# VL: B3 VL
# notes: scFv
# B22: VH1A11/2SD4 VL scFv (scFv, V domains shown)
# VH: B1 VH with A97T, V99A, A105S, Y110D
# VL: B3 VL
# notes: scFv
# B23: VH1D8/2SD4 VL scFv (scFv, V domains shown)
# VH: B1 VH with K98R, V99A, A105S
# VL: B3 VL
# notes: scFv
# B24: 2SD4 VH/VL10F4 scFv (scFv, V domains shown)
# VH: B1 VH with A97T, V99A, A105S, Y110N
# VL: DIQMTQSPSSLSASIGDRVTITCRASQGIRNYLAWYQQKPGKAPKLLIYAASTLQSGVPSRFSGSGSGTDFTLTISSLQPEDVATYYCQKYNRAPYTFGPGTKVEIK
# notes: scFv
# B25: VH1B12/2SD4 VL scFv (scFv, V domains shown)
# VH: B1 VH with V99A, A105S, S106F
# VL: B3 VL
# notes: scFv
# B26: 2SD4 VH/VLLOH10 scFv (scFv, V domains shown)
# VH: B1 VH with A97T, V99A, A105S, Y110N
# VL: B3 VL with P95A, A97S
# notes: scFv
# B27: 2SD4/2SD4 (format printed as scFv/IgG1/IgG4) (antibody, V domains shown)
# VH: B1 VH with A97T, V99A, A105S, Y110N
# VL: B3 VL
# B28: VH1-D2.Y/LOE7.A IgG4 (antibody, V domains shown)
# VH: B1 VH
# VL: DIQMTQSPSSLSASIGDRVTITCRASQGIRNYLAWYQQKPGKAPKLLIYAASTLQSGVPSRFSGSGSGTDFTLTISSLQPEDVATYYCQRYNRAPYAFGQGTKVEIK
# notes: IgG4
# B29: VH1-D2.N/LOE7.T IgG4 (antibody, V domains shown)
# VH: B1 VH with Y110N
# VL: not shown
# notes: IgG4
# B30: VH1-D2.N/LOE7.A IgG4 (antibody, V domains shown)
# VH: B1 VH with Y110N
# VL: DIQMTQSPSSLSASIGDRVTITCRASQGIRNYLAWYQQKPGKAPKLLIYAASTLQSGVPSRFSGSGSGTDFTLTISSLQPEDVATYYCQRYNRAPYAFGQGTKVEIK
# notes: IgG4
# Molecular target: T1, biotinylated recombinant human TNFα (human, UniProt P01375 77-233, biotinylated (D-biotinyl-ε-aminocaproic acid N-hydroxysuccinimide ester, 2:1 molar ratio of biotin to rhTNFα))
# T1 construct: mature; Immobilized via streptavidin on the BIAcore chip; also called biotinylated rhTNFα; biotinylated rhTNF
# Assay: SPR (BIAcore), biotinylated rhTNFα, format IgG1/IgG4
# Protocol: (§1) Before injection of the protein and immediately afterward, PBS buffer alone flowed through each flow cell. […] Antibodies (20 μg/ml) were diluted in PBS running buffer and 25 μl aliquots were injected through the immobilized protein matrices at a flow rate of 5 μl/min. Prior to injection of antibody, and immediately afterwards, PBS buffer alone flowed through each flow cell. The net difference in baseline signal and signal after completion of antibody injection was taken to represent the binding value of the particular sample. Biosensor matrices were regenerated using 100 mM HCI before injection of the next sample. To determine the off rate (Koff), on rate (Kₒₙ), association rate (Kₐ) and dissociation rate (Kd) constants, BIAcore kinetic evaluation software (version 2.1) was used.
# T1 sequence (P01375 77-233 limits assumed): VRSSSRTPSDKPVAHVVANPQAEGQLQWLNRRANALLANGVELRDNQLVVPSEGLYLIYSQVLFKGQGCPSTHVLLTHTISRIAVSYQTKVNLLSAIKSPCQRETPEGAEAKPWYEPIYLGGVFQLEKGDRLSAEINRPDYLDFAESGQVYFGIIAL
row,Binder,koff [s⁻¹]
1,B1,7.7e-05

# Molecular target: T1, biotinylated recombinant human TNFα
# Assay: SPR (BIAcore), scFv, reference VH1-D2/LOE7
# Protocol: as §1
row,Binder,fold faster off rate against LOE7 [fold]
1,B2,2

# Molecular target: T1, biotinylated recombinant human TNFα
# Assay: SPR (BIAcore), scFv; reference taken to be VH1-D2/LOE7
# Protocol: as §1
row,Binder,fold faster off rate [fold]
1,B3,5

# Molecular target: T1, biotinylated recombinant human TNFα
# Assay: SPR (BIAcore), biotinylated rhTNFα, scFv
# Protocol: as §1
row,Binder,koff [s⁻¹]
1,B4,0.00046
2,B5,0.0141
3,B6,0.0133
4,B3,0.00194
5,B7,0.0214
6,B8,0.0146
7,B9,0.0117
8,B10,0.0159
9,B11,0.0067
10,B12,0.0229
11,B13,0.013
12,B14,0.0114
13,B15,0.02
14,B16,0.0136
15,B2,0.0008
16,B17,0.0176
17,B18,0.0156
18,B19,0.0096
19,B20,0.0134
20,B21,0.0098
21,B22,0.0134
22,B23,0.0095
23,B24,0.0111
24,B25,0.0101
25,B26,0.0112

# Molecular target: recombinant human TNFα (human, UniProt P01375 77-233, The active form is a noncovalent homotrimer; one protomer is given.)
# Assay: cell-based or functional assay
# recombinant human TNFα, sequence (P01375 77-233 limits assumed): as above
row,Binder,"IC50, neutralization of TNFα-induced L929 cytotoxicity [nM]"
1,B1,0.34
2,B27,300
3,B28,0.028
4,B3,10
5,B29,0.13
6,B30,0.062

# Molecular target: T1, biotinylated recombinant human TNFα
# Assay: SPR (BIAcore), biotinylated rhTNFα, IgG4
# Protocol: as §1
row,Binder,koff [s⁻¹]
1,B28,2.7e-05
2,B29,2.1e-05
3,B30,3.2e-05
